Data reported in article PMC8779868, “Uncovering Novel Plasma Membrane Carboxylate Transporters in the Yeast Cyberlindnera jadinii” (Journal of Fungi, 2022).

B1: CjAto4 (Williopsis jadinii) (protein)
chain: MSDKENQTLNNPQTQDYASTGGKPDVEHGEIPVSKVYTTGDQDEYLMIGHQKVLRSELWTAFGGDLQPGVHAPPPQRLANPAPLGLCGFALTTFVLSMANARAMGVTIPNAAVGAACFYGGLVQLLAGMWEISLDNTFGGTALSSYGGFWMSWAAIQIDWFGIKKAYDDPIMLANAVGFFLLGWTIFTFMLVLCTVKSTVAFFSLFFFLDITFLLLTIGEFTRKTGVSRAGGVFGVITSFIAWYNAFAGLATKENSYVVAIPLPLPGAKRS
B2: CjAto1 (Williopsis jadinii) (protein)
chain: MSDKESQMLNTSQSQERAIDAGCDDLQEDVEHQQVPVSKVFTSGERDEYVMIGRTKVLRSELWNAFGGDLQPGIHAPPPRRFANPAPLGLCGFALTTFVLSMSNARAMGITVANVAVGPAFFYGGIIQLLSGMWEISLDNTFGGTVLSSYGGFWLSWAAIQIDWFGIQRAYDDPIMLNNGLGFFLLGWVIFTLMVLICTVKSTVAFFSLFFFLEMTFLLLTIGEFTRSVGVTRAAGVFGVITSFLGWYNALAGFATRENSYFVATAVPLPGAKRAQVHS
B3: CjAto3 (Williopsis jadinii) (protein)
chain: MAANVDLEKQATPNSSNDNHTFSPEDEAHPVSKVYTSGENDQYIMIGRTKVLRSELWNAFGGDLQPGIHATPPRRFANPAPLGLCAFALTTFVLSMVNARAMGITTPNIVVGLALFYGGFVQLLAGMWEIALDNTFGGTALSSYGGFWMSYAAIQIDWFGIKSAYTDPIELANAVSFFLLGWTIFTFMILLCTVKSTVSFFSLFFFLEITFLLLTIGDFTRRVGVTRAGGVFGVITAFIAWYNAFAGIATKENSYITIKAWPLPGAKRA
B4: CjJen5 (Williopsis jadinii) (protein)
chain: MDWDAFDFFVMSLNVSKLATDLDRSVKDISWGITVVLMFRSVGAIVFGYFGDRYGRKWPLIVNLFCLVVIQIGTGFINTYAEFIGVRALFGVFMGSMYGLASATAMEGLPTSARSFLSGVYQQGYALGYLLGVIFQRAITDTTTHTWRSLFWFSAGPPKLKPFLQQQLHMKNKNTSFSEDACKVFKEQWLKMIYLVLLMAGMNFMSHGSQDLYPTMLTVQLNYSPNRSTVTNSVANLGALAGGMTFGHFSGFLGRRSGIIICSILGACMIYPWAFVRNSGINAGVFFLQFFVQGAWGVIPIHLSELSPPEFRAFVVGVSYQLGNLASSASSTIESTLGERYPLYDDNGDVIEGVYDYARVMAIFVGAVFCYVILIAFIGPENRHSNINYVLSKEEEEELIQQRMIVTNNGSEQDSNADDEEKLVTAHTEKIEPK
B5: CjJen1 (Williopsis jadinii) (protein)
chain: MHKLEESVTRQDSIHEDPDDVVIEDEQEIILNWPNIVEYSKTRFTSLTHLHLHAVGDLNPLPSLREMSWNNWNFFFMGFVAWFSASFDFFLTAVSGTYIAQSLDVSTADITWGLSAVLMVRSAGAVIFGLWTDNYSRKWPFITTAAMFCALQIGTGFCKTYQQFMAVRAISGIAMGGTYATAAATSMDDAPLKARSFLSGLFFSAYAFGMIFAAIFWRAFESTKHSWKALFWFSSCFPFILICWRLVFPETRYFTRVLKARELIKQDQIEAGVYVKPTLKTKWGSVKAMLKKDWLLFTYLVILLAGTNYLTHASQDMYPTMLRSQLEWSLDAQTVAIVVVNLGAICGGLIAGTFMEVTGRRLAILICCVIGGCFVYPAYMMHNNSAVLGGGFFLFFAVIGVWGVLPIHLSELSPPDARALVSGLAYQLGNLASSASSTIETRLAKLWPLEWDAEGNPIKYDYAKTIACFTGAVFIYVFITTFIGPEKFHRDLSSPLLKTYIEKVIEIEEGRDPEAKFVTSSGDTSEQASYGKATHEEIELDCYPQEKK

Substrate: CC(=O)O
Assay: cells, lysate or membranes
Conditions: pH 6.0, 30 °C, labelled compound, pH 6.0

| Protein | Km |
| --- | --- |
| B1 | 1.28 ± 0.38 mM |
| B2 | 12.18 ± 4.67 mM |
| B3 | 9.17 ± 4.70 mM |
| B4 | 5.18 ± 1.51 mM |
| B5 | 2.15 ± 0.60 mM |
